Data published in publication doi:10.1101/2021.12.01.470705 (bioRxiv, 2021).

T1: WWOX tandem WW1-WW2 domains (amino acid 16-91) (human, UniProt Q9NZC7 16-91)
T1 sequence (looked up): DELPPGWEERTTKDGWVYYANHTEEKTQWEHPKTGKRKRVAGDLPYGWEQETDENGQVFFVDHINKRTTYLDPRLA

T2: WWOX WW2 domain (amino acid 57-91) (human, UniProt Q9NZC7 57-91)
T2 chain (looked up): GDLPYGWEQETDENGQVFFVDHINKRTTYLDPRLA

T3: WWOX WW1 domain (amino acid 16-50) (human, UniProt Q9NZC7 16-50)
T3 chain (looked up): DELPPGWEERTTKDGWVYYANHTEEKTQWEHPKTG

B1: ErbB4 1291-1305 (PY3) single-motif peptide (peptide, UniProt Q15303 1291-1305, looked up)
peptide: KPGTVLPPPPYRHRN

What was measured:
[1] = target: WWOX tandem WW1-WW2 domains (amino acid 16-91) (human) (UniProt Q9NZC7); assay: ITC
[2] = target: WWOX tandem WW1-WW2 domains (amino acid 16-91) (human) (UniProt Q9NZC7); assay: NMR titration
[3] = target: T1, WWOX tandem WW1-WW2 domains (amino acid …); assay: ITC
[4] = target: T2, WWOX WW2 domain (amino acid 57-91); assay: ITC
[5] = target: T3, WWOX WW1 domain (amino acid 16-50); assay: ITC

Row | Molecule | Kd [1] | other results
1 | ErbB4 double-motif peptide PY1PY2 (natural linker) | 14 µM | apparent KD, WW2 site [2]: 1000 µM
2 | ErbB4 single-motif peptide PY2 | > 100 µM | –
3 | ErbB4 single-motif peptide PY1 | > 100 µM | –
4 | PY3AY3, PY3PY3 peptide with PP-to-AA mutations in the C-terminal motif | 27 µM | –
5 | B1 | – | Kd [3]: 30 µM; Kd [4]: > 200 µM; Kd [5]: 78 µM
